The source of these data is article PMC9117644 (Frontiers in Bioengineering and Biotechnology, 2022).

The target in this experiment is T1, human TLR4 ectodomain (S2-derived) (human, UniProt O00206 23-629).
T1 construct: human toll-like receptor 4 ectodomain, UniProtKB O00206, P23-M629, Drosophila codon-optimized; Cloned into pExpreS2-1-CRPA (Addgene #175445): N-terminal BiP signal peptide for secretion, C-terminal thrombin-cleavable Protein A tag; a few residues of the thrombin site probably remain after cleavage; also called toll-like receptor 4; Drosophila-derived TLR4; source: purified (IgG Sepharose, …)
Nature of the experiment: SEC; analytical SEC, Superdex 200 Increase 30/100 on a Dionex Ultimate 3000 UHPLC; 100-µl injections of 200 µg TLR4, 400 µg MD-2, or 200 µg TLR4 + 400 µg MD-2; A280 traces. Particulars: both partners purified. (Size exclusion chromatography separates by hydrodynamic size, large species first.)

T1 sequence (O00206 23-629): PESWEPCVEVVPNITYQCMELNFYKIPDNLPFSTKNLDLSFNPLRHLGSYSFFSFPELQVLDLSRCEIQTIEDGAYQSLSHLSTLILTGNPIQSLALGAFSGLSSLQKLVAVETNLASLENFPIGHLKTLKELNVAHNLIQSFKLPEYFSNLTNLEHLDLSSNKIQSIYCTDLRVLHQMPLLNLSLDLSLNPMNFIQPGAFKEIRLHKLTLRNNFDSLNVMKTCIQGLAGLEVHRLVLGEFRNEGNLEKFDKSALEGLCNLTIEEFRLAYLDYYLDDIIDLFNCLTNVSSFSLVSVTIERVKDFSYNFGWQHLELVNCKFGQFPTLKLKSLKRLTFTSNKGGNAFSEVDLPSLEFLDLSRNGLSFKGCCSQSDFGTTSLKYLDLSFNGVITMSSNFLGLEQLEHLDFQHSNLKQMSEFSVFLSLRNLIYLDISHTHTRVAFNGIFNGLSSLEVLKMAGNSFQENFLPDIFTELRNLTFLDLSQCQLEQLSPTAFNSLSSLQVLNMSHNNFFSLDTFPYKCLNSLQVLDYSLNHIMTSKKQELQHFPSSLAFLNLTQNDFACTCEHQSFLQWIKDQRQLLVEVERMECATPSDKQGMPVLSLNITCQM

B1: human MD-2 (S2-derived, Protein A tagged) (natural protein, UniProt Q9Y6Y9 19-160, looked up)
chain: QKQYWVCNSSDASISYTYCDKMQYPISINVNPCIELKRSKGLLHIFYIPRRDLKQLYFNLYITVNTMNLPKRKEVICRGSDDDYSFCRALKGETVNTTISFSFKGIKFSKGKYKCVVEAISGSPEEMLFCLEFVILHQPNSN
notes: human lymphocyte antigen 96 (MD-2), UniProtKB Q9Y6Y9, Q19-N160, Drosophila codon-optimized; Cloned into pExpreS2-1-CRPA (Addgene #175445): N-terminal BiP signal peptide for secretion, thrombin site and Protein A at the C-terminus; the tag was routinely left on for stability; also called lymphocyte antigen 96; source: purified (IgG Sepharose, SEC); not shown: Protein A, C-terminal, kept
Consider B1, for which the binding result is “binds”.
